Source: patent US20170081400A1 (CEPHALON, published 2017)
Residue numbers refer to the chain shown, from its start.

B1: 320-541 (antibody, human IgG1, name in Kabat numbering, V domains shown)
VH: QVQLVQSGAEVKKPGASVKVSCKASGYTFTSYDINWVRQAPGQGLEWMGWLNPNSGQTGYAQKFQGRVTMTADRSTSTAYMELSSLRSEDTAVYYCAREVPETAAFEYWGQGTLVTVSS
VL: QSVLTQPPSVSGAPGQRVTISCTSSSSDIGAGLGVHWYQQLPGTAPKLLIEGYYNRPSGVPDRFSGSKSGTSASLTITGLLPEDEGDYYCQSYDGTLSALFGGGTKLTVLG
notes: full-length human IgG1, lambda
B2: 320-564 (antibody, human IgG1, name in Kabat numbering, V domains shown)
VH: B1 VH with Q57N, G59W
VL: B1 VL
notes: as for B1
B3: 320-569 (antibody, human IgG1, name in Kabat numbering, V domains shown)
VH: B1 VH with Q57N, Y60D
VL: B1 VL
notes: as for B1
B4: 320-575 (antibody, human IgG1, name in Kabat numbering, V domains shown)
VH: B1 VH with Q57N, A61H
VL: B1 VL
notes: as for B1
B5: 320-574 (antibody, human IgG1, name in Kabat numbering, V domains shown)
VH: B1 VH with Q57N, A61D
VL: B1 VL
notes: as for B1
B6: 320-554 (antibody, human IgG1, name in Kabat numbering, V domains shown)
VH: B1 VH with Q57N, T58L
VL: B1 VL
notes: as for B1
B7: 320-559 (antibody, human IgG1, name in Kabat numbering, V domains shown)
VH: B1 VH with Q57N, G59Q
VL: B1 VL
notes: as for B1
B8: 320-572 (antibody, human IgG1, name in Kabat numbering, V domains shown)
VH: B1 VH with Q57N, A61S
VL: B1 VL
notes: as for B1
B9: 320-551 (antibody, human IgG1, name in Kabat numbering, V domains shown)
VH: B1 VH with Q57N, T58D
VL: B1 VL
notes: as for B1
B10: 320-550 (antibody, human IgG1, name in Kabat numbering, V domains shown)
VH: B1 VH with Q57N, T58Q
VL: B1 VL
notes: as for B1
B11: 320-555 (antibody, human IgG1, name in Kabat numbering, V domains shown)
VH: B1 VH with Q57N, T58W
VL: B1 VL
notes: as for B1
B12: 320-557 (antibody, human IgG1, name in Kabat numbering, V domains shown)
VH: B1 VH with Q57N, G59A
VL: B1 VL
notes: as for B1
B13: 320-565 (antibody, human IgG1, name in Kabat numbering, V domains shown)
VH: B1 VH with Q57N, G59Y
VL: B1 VL
notes: as for B1
B14: 320-568 (antibody, human IgG1, name in Kabat numbering, V domains shown)
VH: B1 VH with Q57N, Y60Q
VL: B1 VL
notes: as for B1
B15: 320-567 (antibody, human IgG1, name in Kabat numbering, V domains shown)
VH: B1 VH with Q57N, Y60S
VL: B1 VL
notes: as for B1
B16: 320-548 (antibody, human IgG1, name in Kabat numbering, V domains shown)
VH: B1 VH with Q57N, T58A
VL: B1 VL
notes: as for B1
B17: 320-545 (antibody, human IgG1, name in Kabat numbering, V domains shown)
VH: B1 VH with Q57L
VL: B1 VL
notes: as for B1
B18: 320-544 (antibody, human IgG1, name in Kabat numbering, V domains shown)
VH: B1 VH with Q57K
VL: B1 VL
notes: as for B1
B19: 320-542 (antibody, human IgG1, name in Kabat numbering, V domains shown)
VH: B1 VH with Q57D
VL: B1 VL
notes: as for B1
B20: 320-560 (antibody, human IgG1, name in Kabat numbering, V domains shown)
VH: B1 VH with Q57N, G59D
VL: B1 VL
notes: as for B1
B21: 320-546 (antibody, human IgG1, name in Kabat numbering, V domains shown)
VH: B1 VH with Q57W
VL: B1 VL
notes: as for B1
B22: 320-573 (antibody, human IgG1, name in Kabat numbering, V domains shown)
VH: B1 VH with Q57N, A61Q
VL: B1 VL
notes: as for B1
B23: 320-570 (antibody, human IgG1, name in Kabat numbering, V domains shown)
VH: B1 VH with Q57N, Y60H
VL: B1 VL
notes: as for B1
B24: 320-566 (antibody, human IgG1, name in Kabat numbering, V domains shown)
VH: B1 VH with Q57N, Y60A
VL: B1 VL
notes: as for B1
B25: 320-571 (antibody, human IgG1, name in Kabat numbering, V domains shown)
VH: B1 VH with Q57N, Y60K
VL: B1 VL
notes: as for B1
B26: 320-543 (antibody, human IgG1, name in Kabat numbering, V domains shown)
VH: B1 VH with Q57H
VL: B1 VL
notes: as for B1
B27: 320-561 (antibody, human IgG1, name in Kabat numbering, V domains shown)
VH: B1 VH with Q57N, G59H
VL: B1 VL
notes: as for B1
B28: 320-556 (antibody, human IgG1, name in Kabat numbering, V domains shown)
VH: B1 VH with Q57N, T58Y
VL: B1 VL
notes: as for B1
B29: 320-553 (antibody, human IgG1, name in Kabat numbering, V domains shown)
VH: B1 VH with Q57N, T58K
VL: B1 VL
notes: as for B1
B30: 320-576 (antibody, human IgG1, name in Kabat numbering, V domains shown)
VH: B1 VH with Q57N, A61K
VL: B1 VL
notes: as for B1
B31: 320-549 (antibody, human IgG1, name in Kabat numbering, V domains shown)
VH: B1 VH with Q57N, T58S
VL: B1 VL
notes: as for B1
B32: 320-552 (antibody, human IgG1, name in Kabat numbering, V domains shown)
VH: B1 VH with Q57N, T58H
VL: B1 VL
notes: as for B1

What follows are binders tested against T1, human TL1A extracellular domain with N-terminal HIS and FLAG tag (human, UniProt O95150 72-251) (assay: SPR Run 7, antibody on Protein A, TL1A 5 ug/mL, timepoint 220).
T1 construct: the whole entry is named; also called TNFSF15
T1 sequence: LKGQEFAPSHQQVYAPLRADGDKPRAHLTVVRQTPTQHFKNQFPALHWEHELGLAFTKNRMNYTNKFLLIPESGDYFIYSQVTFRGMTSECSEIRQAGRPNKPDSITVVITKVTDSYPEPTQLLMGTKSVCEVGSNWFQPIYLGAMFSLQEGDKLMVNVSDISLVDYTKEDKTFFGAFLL
Description: (§1) 1.5. Antibody expression and antigen binding as determined by SPR. Using a CM5 sensor chip (GE Healthcare) Protein A (Pierce) was coupled to the chip surface using an amine coupling kit (GE Healthcare). Protein A was coupled on flow cell 1 and 2 (or alternatively 3 and 4) using a BIACORE® T200. […] The amount of supernatant or purified protein (as well as the concentration) injected during the capture stage varied between runs and is specified in the header of the Tables 3-11. At the end of injection of the supernatant or purified antibody the change in response units was measured. This value was reported as Capture Level in Tables 3-11. […] The response units were measured prior to the end of the dissociation phase. […] The sensorgrams were double referenced (flow cell 2 is subtracted from flow cell 1 and a buffer blank). As there were a large number of antibody variants to screen, these were screened across different runs (Tables 3-11). […] A summary of the conditions used in each run is below:
(§2) 2.1. […] In some experiment the antibodies were purified using Protein A chromatography (See 1.4) and purified antibodies were used in BIACORE® (GE Healthcare) experiments.

Going from B1 to B2, the “TL1A Binding Level (Late)” value falls from 84 RU to 67 RU.

First: B3
Second: B4
The “TL1A Binding Level (Late)” value of the first is lower: 73 RU for the first, 110 RU for the second.

First: B5
Second: B6
The “TL1A Binding Level (Late)” value of the first is higher: 130 RU for the first, 51 RU for the second.

Compared with B7, B8 is higher in “TL1A Binding Level (Late)” value: 5 RU for the first, 90 RU for the second.

First: B9
Second: B10
The “TL1A Binding Level (Late)” value of the first is lower: 36 RU for the first, 103 RU for the second.

Going from B11 to B12, the “TL1A Binding Level (Late)” value falls from 30 RU to 6 RU.

First: B13
Second: B14
The “TL1A Binding Level (Late)” value of the first is lower: 12 RU for the first, 107 RU for the second.

Compared with B15, B16 is lower in “TL1A Binding Level (Late)” value: 86 RU for the first, 68 RU for the second.

Going from B17 to B18, the “TL1A Binding Level (Late)” value rises from 100 RU to 112 RU.

Compared with B19, B20 is lower in “TL1A Binding Level (Late)” value: 86 RU for the first, 9 RU for the second.

Compared with B21, B22 is higher in “TL1A Binding Level (Late)” value: 61 RU for the first, 62 RU for the second.

Going from B23 to B24, the “TL1A Binding Level (Late)” value rises from 72 RU to 110 RU.

First: B25
Second: B26
The “TL1A Binding Level (Late)” value of the first is lower: 72 RU for the first, 126 RU for the second.

First: B27
Second: B28
The “TL1A Binding Level (Late)” value of the first is lower: 6 RU for the first, 90 RU for the second.

Compared with B29, B30 is higher in “TL1A Binding Level (Late)” value: 78 RU for the first, 83 RU for the second.

Compared with B31, B32 is higher in “TL1A Binding Level (Late)” value: 45 RU for the first, 97 RU for the second.

What follows are binders tested against T1, human TL1A extracellular domain with … (assay: SPR Run 7, antibody on Protein A, TL1A 5 ug/mL, timepoint 44).
Description: as §1, §2

First: B1
Second: B2
The “TL1A Binding Level (Early)” value of the first is higher: 94 RU for the first, 72 RU for the second.

First: B3
Second: B4
The “TL1A Binding Level (Early)” value of the first is lower: 79 RU for the first, 121 RU for the second.

Going from B5 to B6, the “TL1A Binding Level (Early)” value falls from 140 RU to 66 RU.

First: B7
Second: B8
The “TL1A Binding Level (Early)” value of the first is lower: 9 RU for the first, 98 RU for the second.

Compared with B9, B10 is higher in “TL1A Binding Level (Early)” value: 44 RU for the first, 112 RU for the second.

Compared with B11, B12 is lower in “TL1A Binding Level (Early)” value: 62 RU for the first, 26 RU for the second.

First: B13
Second: B14
The “TL1A Binding Level (Early)” value of the first is lower: 43 RU for the first, 115 RU for the second.

Going from B15 to B16, the “TL1A Binding Level (Early)” value falls from 96 RU to 74 RU.

First: B17
Second: B18
The “TL1A Binding Level (Early)” value of the first is lower: 109 RU for the first, 120 RU for the second.

Compared with B19, B20 is lower in “TL1A Binding Level (Early)” value: 97 RU for the first, 36 RU for the second.

B21 and B22 are the same in “TL1A Binding Level (Early)” value: 67 RU for the first, 67 RU for the second.

Going from B23 to B24, the “TL1A Binding Level (Early)” value rises from 79 RU to 120 RU.

First: B25
Second: B26
The “TL1A Binding Level (Early)” value of the first is lower: 78 RU for the first, 138 RU for the second.

First: B27
Second: B28
The “TL1A Binding Level (Early)” value of the first is lower: 14 RU for the first, 100 RU for the second.

Going from B29 to B30, the “TL1A Binding Level (Early)” value rises from 84 RU to 90 RU.

Compared with B31, B32 is higher in “TL1A Binding Level (Early)” value: 50 RU for the first, 104 RU for the second.
